Results on 94 variants are retold here after the supplement of paper PMC10567573.

First the molecules themselves.
B1: ANKRD40 (parent)
chain: YQELLRVCCCELGVNPDQVEKIRK
B2: SETD8 (parent)
chain: KKAQGKTQQNRKLTDFYPVRRSSR
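Also: lentivirally expressed fusions sorted by FACS into six bins by GFP to DsRed ratio, PSI derived from sequencing read proportions per bin multiplied by bin number.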

Variants of B1 are the subject of one data set. Nature of the data set: protein stability index of a GFP-peptide fusion (GPS, HEK-293T) (PSI 1-6); higher = more stable. The note with it: c terminus: a fixed tail appended.
Turning to AQELLRVCCCELGVNPDQVEKIRK, the protein stability index was 2.96.

Turning to EQELLRVCCCELGVNPDQVEKIRK, the protein stability index stood at 3.69.

As to FQELLRVCCCELGVNPDQVEKIRK, the protein stability index was determined as 1.99.

With CQELLRVCCCELGVNPDQVEKIRK, the protein stability index amounted to 1.95.

Consider DQELLRVCCCELGVNPDQVEKIRK, for which the protein stability index was 3.49.

The variants in the next data set derive from B2. The data set is described as above. Conditions: c terminus: a fixed tail appended.
With KKAQGKTQQNRKLTDFYQVRRSSR, the protein stability index came out at 1.74.

Regarding KKAQGKTQQNRKLTDFYRVRRSSR, the protein stability index amounted to 2.54.

Consider KKAQGKTQQNRKLTDFYLVRRSSR, for which the protein stability index stood at 3.36.

For the variant KKAQGKTQQNRKLTDFYNVRRSSR, the protein stability index amounted to 1.86.

For the variant KKAQGKTQQNRKLTDFYYVRRSSR, the protein stability index is 2.51.

In the case of KKAQGKTQQNRKLTDFYMVRRSSR, the protein stability index worked out at 3.82.

Regarding KKAQGKTQQNRKLTDFYTVRRSSR, the protein stability index was determined as 3.77.

In the case of KKAQGKTQQNRKLTDFYWVRRSSR, the protein stability index is 3.18.

On to KKAQGKTQQNRKLTDFYPCRRSSR, for which the protein stability index amounted to 3.26.

KKAQGKTQQNRKLTDFYPWRRSSR: the protein stability index worked out at 2.09.

For KKAQGKTQQNRKLTDFYPGRRSSR, the protein stability index stood at 4.08.

For the variant KKAQGKTQQNRKLTDFYPKRRSSR, the protein stability index came out at 2.02.

As for KKAQGKTQQNRKLTDFYPNRRSSR, the protein stability index was found to be 3.29.

As for KKAQGKTQQNRKLTDFYPIRRSSR, the protein stability index turned out to be 3.13.

For KKAQGKTQQNRKLTDFYPRRRSSR, the protein stability index came to 4.2.

Take KKAQGKTQQNRKLTDFYPARRSSR: the protein stability index was 4.57.

With KKAQGKTQQNRKLTDFYPPRRSSR, the protein stability index came out at 2.88.

As to KKAQGKTQQNRKLTDFYPHRRSSR, the protein stability index came out at 3.63.

As for KKAQGKTQQNRKLTDFYPYRRSSR, the protein stability index was found to be 3.35.

Take KKAQGKTQQNRKLTDFYPQRRSSR: the protein stability index worked out at 3.49.

Take KKAQGKTQQNRKLTDFYPFRRSSR: the protein stability index came out at 2.42.

As to KKAQGKTQQNRKLTDFYPLRRSSR, the protein stability index amounted to 3.11.

Regarding KKAQGKTQQNRKLTDFYPMRRSSR, the protein stability index came out at 3.01.

Regarding KKAQGKTQQNRKLTDFYPDRRSSR, the protein stability index worked out at 3.32.

Regarding KKAQGKTQQNRKLTDFYPERRSSR, the protein stability index was 3.84.

As to KKAQGKTQQNRKLTDFYPTRRSSR, the protein stability index was 2.72.

With KKAQGKTQQNRKLTDFYPVRRSGR, the protein stability index came out at 1.83.

Regarding KKAQGKTQQNRKLTDFYPVRRSRR, the protein stability index was 2.16.

In the case of KKAQGKTQQNRKLTDFYPVRRSHR, the protein stability index stood at 2.7.

As for KKAQGKTQQNRKLTDFYPVRRSDR, the protein stability index amounted to 3.09.

KKAQGKTQQNRKLTDFYPVRRSER: the protein stability index is 3.5.

Turning to KKAQGKTQQNRKLTDFYPVRRSYR, the protein stability index came to 3.04.

For the variant KKAQGKTQQNRKLTDFYPVRRSMR, the protein stability index came out at 3.18.

Turning to KKAQGKTQQNRKLTDFYPVRRSAR, the protein stability index turned out to be 3.62.

Consider KKAQGKTQQNRKLTDFYPVRRSFR, for which the protein stability index was found to be 3.54.

As for KKAQGKTQQNRKLTDFYPVRRSTR, the protein stability index stood at 2.23.

For KKAQGKTQQNRKLTDFYPVRRSPR, the protein stability index was 2.65.

On to KKAQGKTQQNRKLTDFYPVRRSNR, for which the protein stability index came out at 2.66.

With KKAQGKTQQNRKLTDFYPVRRSLR, the protein stability index amounted to 4.44.

As to KKAQGKTQQNRKLTDFYPVRRSKR, the protein stability index came to 4.11.

Consider KKAQGKTQQNRKLTDFYPVRRSST, for which the protein stability index is 2.75.

With KKAQGKTQQNRKLTDFYPVRRSSS, the protein stability index turned out to be 3.83.

Consider KKAQGKTQQNRKLTDFYPVRRSSH, for which the protein stability index was 2.54.

For KKAQGKTQQNRKLTDFYPVRRSSF, the protein stability index is 2.57.

As for KKAQGKTQQNRKLTDFYPVRRSSA, the protein stability index stood at 2.12.

For the variant KKAQGKTQQNRKLTDFYPVRRSSM, the protein stability index turned out to be 3.16.

As for KKAQGKTQQNRKLTDFYPVRRSSN, the protein stability index stood at 2.76.

Regarding KKAQGKTQQNRKLTDFYPVRRSSL, the protein stability index stood at 2.08.

Turning to KKAQGKTQQNRKLTDFYPVRRSSQ, the protein stability index came out at 1.06.

In the case of KKAQGKTQQNRKLTDFYPVRRSSP, the protein stability index was determined as 3.87.

Turning to KKAQGKTQQNRKLTDFYPVRRSSC, the protein stability index was 3.61.

Turning to KKAQGKTQQNRKLTDFYPVRRPSR, the protein stability index amounted to 2.89.

As to KKAQGKTQQNRKLTDFYPVRRHSR, the protein stability index worked out at 1.38.

As for KKAQGKTQQNRKLTDFYPVRRASR, the protein stability index turned out to be 2.92.

As to KKAQGKTQQNRKLTDFYPVRRLSR, the protein stability index stood at 2.02.

Regarding KKAQGKTQQNRKLTDFYPVRRGSR, the protein stability index is 2.42.

Turning to KKAQGKTQQNRKLTDFYPVRRQSR, the protein stability index came to 2.37.

On to KKAQGKTQQNRKLTDFYPVRRMSR, for which the protein stability index was found to be 3.38.

Take KKAQGKTQQNRKLTDFYPVRRTSR: the protein stability index was 2.63.

Regarding KKAQGKTQQNRKLTDFYPVRRYSR, the protein stability index turned out to be 3.06.

Turning to KKAQGKTQQNRKLTDFYPVPRSSR, the protein stability index turned out to be 4.13.

KKAQGKTQQNRKLTDFYPVDRSSR: the protein stability index worked out at 3.66.

For the variant KKAQGKTQQNRKLTDFYPVFRSSR, the protein stability index turned out to be 2.63.

As for KKAQGKTQQNRKLTDFYPVNRSSR, the protein stability index came to 2.83.

Consider KKAQGKTQQNRKLTDFYPVSRSSR, for which the protein stability index was 2.

Consider KKAQGKTQQNRKLTDFYPVVRSSR, for which the protein stability index worked out at 3.67.

Turning to KKAQGKTQQNRKLTDFYPVLRSSR, the protein stability index was 2.32.

Regarding KKAQGKTQQNRKLTDFYPVYRSSR, the protein stability index is 2.25.

With KKAQGKTQQNRKLTDFYPVGRSSR, the protein stability index came to 3.43.

On to KKAQGKTQQNRKLTDFYPVQRSSR, for which the protein stability index came out at 3.48.

As to KKAQGKTQQNRKLTDFYPVTRSSR, the protein stability index was found to be 1.92.

As for KKAQGKTQQNRKLTDFYPVWRSSR, the protein stability index is 3.22.

With KKAQGKTQQNRKLTDFYPVKRSSR, the protein stability index was 1.93.

As for KKAQGKTQQNRKLTDFYPVMRSSR, the protein stability index worked out at 2.94.

For KKAQGKTQQNRKLTDFYPVCRSSR, the protein stability index worked out at 2.78.

Regarding KKAQGKTQQNRKLTDFYPVRVSSR, the protein stability index came out at 3.

As for KKAQGKTQQNRKLTDFYPVRGSSR, the protein stability index amounted to 2.9.

On to KKAQGKTQQNRKLTDFYPVRNSSR, for which the protein stability index came out at 3.2.

For the variant KKAQGKTQQNRKLTDFYPVRMSSR, the protein stability index is 3.63.

On to KKAQGKTQQNRKLTDFYPVRDSSR, for which the protein stability index was determined as 3.23.

For the variant KKAQGKTQQNRKLTDFYPVRWSSR, the protein stability index stood at 2.57.

Consider KKAQGKTQQNRKLTDFYPVRISSR, for which the protein stability index is 3.33.

As for KKAQGKTQQNRKLTDFYPVRASSR, the protein stability index was 2.52.

Take KKAQGKTQQNRKLTDFYPVRTSSR: the protein stability index was determined as 2.23.

KKAQGKTQQNRKLTDFYPVRKSSR: the protein stability index was 2.66.

KKAQGKTQQNRKLTDFYPVRCSSR: the protein stability index was determined as 2.23.

For the variant KKAQGKTQQNRKLTDFYPVRPSSR, the protein stability index turned out to be 2.7.

Take KKAQGKTQQNRKLTDFYPVRSSSR: the protein stability index was determined as 3.25.

For the variant KKAQGKTQQNRKLTDFYPVRESSR, the protein stability index was found to be 3.17.
